From publication PMC6449425, “Sterol Regulatory Element-Binding Protein (Sre1) Promotes the Synthesis of Carotenoids and Sterols in Xanthophyllomyces dendrorhous”

T1: Sre1 bHLH DNA-binding domain (UniProt A0A5B8KSW3 349-477)
T1 sequence: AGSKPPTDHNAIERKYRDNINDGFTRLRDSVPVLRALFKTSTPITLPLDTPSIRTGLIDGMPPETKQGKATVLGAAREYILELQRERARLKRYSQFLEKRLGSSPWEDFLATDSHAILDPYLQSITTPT


Experiments:
[1] = target: T1, Sre1 bHLH DNA-binding domain; test: EMSA; 1.7 nM protein, 0.5 nM probe; single (fast) shifted band; 50 mM Hepes-KOH pH 7.5, 100 mM KCl, 5 mM MgCl2, 1 mM DTT, 20% glycerol, 0.8 mg/ml BSA, 0.3 mg/ml poly(dI-dC), 22°C 30 min; gel 0.5x TBE 4°C; details: protein: recombinant; tags: His-tag (pET-TEV, TEV site); chain copies: 2; label: 3' biotin; blunt
[2] = target: T1, Sre1 bHLH DNA-binding domain; test: EMSA; 1.7 nM protein, 0.5 nM probe; no shift; 50 mM Hepes-KOH pH 7.5, 100 mM KCl, 5 mM MgCl2, 1 mM DTT, 20% glycerol, 0.8 mg/ml BSA, 0.3 mg/ml poly(dI-dC), 22°C 30 min; gel 0.5x TBE 4°C; details: protein: recombinant; tags: His-tag (pET-TEV, TEV site); chain copies: 2; blunt
[3] = target: T1, Sre1 bHLH DNA-binding domain; test: EMSA; 1.7 nM protein, 0.5 nM probe; two shifted bands; 50 mM Hepes-KOH pH 7.5, 100 mM KCl, 5 mM MgCl2, 1 mM DTT, 20% glycerol, 0.8 mg/ml BSA, 0.3 mg/ml poly(dI-dC), 22°C 30 min; gel 0.5x TBE 4°C; details: protein: recombinant; tags: His-tag (pET-TEV, TEV site); chain copies: 2; blunt

| Binder | binding result [1] | further results |
| --- | --- | --- |
| SRE1+SRE2* (probe C, by order) (dsDNA) DNA 1: CCATCGTCACTCTCGTCTCCTGACCCGTTGGGGCTATAATTCATTTTACGTGACTCCACT DNA 2: AGTGGAGTCACGTAAAATGAATTATAGCCCCAACGGGTCAGGAGACGAGAGTGACGATGG | binds |  |
| probe D (SRE1*+SRE2*) (dsDNA) DNA 1: CCATCGTCACTCTTTATTCTTTTTCCGTTGGGGCTATAATTCATTTTACGTGACTCCACT DNA 2: AGTGGAGTCACGTAAAATGAATTATAGCCCCAACGGAAAAAGAATAAAGAGTGACGATGG |  | binding result [2]: no binding |
| SRE1*+SRE2 (probe B, by order) (dsDNA) DNA 1: CCATCGTCACTCTTTATTCTTTTTCCGTTGGGGCTATGTAACACCACACGTGACTCCACT DNA 2: AGTGGAGTCACGTGTGGTGTTACATAGCCCCAACGGAAAAAGAATAAAGAGTGACGATGG | binds |  |
| probe A (HMGS SRE1+SRE2) (dsDNA) DNA 1: CCATCGTCACTCTCGTCTCCTGACCCGTTGGGGCTATGTAACACCACACGTGACTCCACT DNA 2: AGTGGAGTCACGTGTGGTGTTACATAGCCCCAACGGGTCAGGAGACGAGAGTGACGATGG |  | binding result [3]: binds |
